According to US20120328616A1:

Target: human FGFR1c/human β-Klotho complex (FGF21 receptor) (human) (UniProt P11362)
Assay: cell-based or functional assay

EC50, pERK Human Adipocyte Assay: 0.623 nM
Substance: human FGF21 (ligand)
